These results are taken from patent US5888732.

In series [1] the test system is Lambda integrase (Int) + IHF. The series is described as follows: cleavage_in_vitro. The conditions noted are these: agarose gel; 50 mM Tris pH 7.8, 70 mM KCl, 5 mM spermidine, 25 C 45 min.
The target in series [2] is Lambda integrase (Int) + excisionase (Xis) + IHF (UniProt P03700+P03699+P0A6X7+P0A6Y1). Nature of the series: cell_activity.
Series [3] addresses Cre recombinase (bacteriophage P1) (UniProt P06956). The series is described as follows: cell_activity. The conditions noted are these: 140 without Cre.
Chain of UniProt P06956 (P06956 whole entry): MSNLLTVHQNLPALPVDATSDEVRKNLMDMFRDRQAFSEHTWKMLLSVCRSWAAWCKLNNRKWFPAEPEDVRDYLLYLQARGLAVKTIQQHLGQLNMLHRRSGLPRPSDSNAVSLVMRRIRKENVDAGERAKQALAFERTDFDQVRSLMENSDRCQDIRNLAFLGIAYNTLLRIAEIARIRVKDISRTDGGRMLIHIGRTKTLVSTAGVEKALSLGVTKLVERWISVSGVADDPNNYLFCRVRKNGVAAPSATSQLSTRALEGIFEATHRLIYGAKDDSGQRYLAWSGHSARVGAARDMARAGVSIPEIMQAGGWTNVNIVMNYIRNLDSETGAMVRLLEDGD

Chain of UniProt P03700 (P03700 whole entry, chain 1 of 4): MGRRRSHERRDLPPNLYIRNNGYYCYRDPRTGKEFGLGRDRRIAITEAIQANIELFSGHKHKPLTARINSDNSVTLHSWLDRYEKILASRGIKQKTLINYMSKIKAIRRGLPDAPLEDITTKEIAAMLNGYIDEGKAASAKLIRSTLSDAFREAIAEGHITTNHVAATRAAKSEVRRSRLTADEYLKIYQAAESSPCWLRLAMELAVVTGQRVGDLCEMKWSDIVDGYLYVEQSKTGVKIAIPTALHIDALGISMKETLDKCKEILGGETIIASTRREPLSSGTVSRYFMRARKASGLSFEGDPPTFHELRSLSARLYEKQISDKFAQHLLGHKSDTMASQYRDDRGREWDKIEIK
Chain of UniProt P03700 (P03699 whole entry, chain 2 of 4): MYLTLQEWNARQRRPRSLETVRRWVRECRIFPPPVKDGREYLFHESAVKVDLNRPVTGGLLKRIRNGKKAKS
Chain of UniProt P03700 (P0A6X7 2-99, chain 3 of 4): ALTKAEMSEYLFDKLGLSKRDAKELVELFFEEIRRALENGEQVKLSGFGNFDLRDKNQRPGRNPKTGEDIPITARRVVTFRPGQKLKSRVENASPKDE
Chain of UniProt P03700 (P0A6Y1 whole entry, chain 4 of 4): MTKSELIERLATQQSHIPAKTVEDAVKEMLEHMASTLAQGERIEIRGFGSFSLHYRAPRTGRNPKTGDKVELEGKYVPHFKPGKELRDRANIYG

As to “attB wild type (pEZC705) ; attP wild type (pEZC726)”, the activity (% of total DNA converted to cointegrate) in series [1] amounted to 5. For the substance attR1 (pEZC1305) ; attLwt (pEZC1313), the activity (kanamycin resistant colonies) in series [2] (with Cre/loxP, background 1) amounted to 4. Consider attR2 (pEZC1309) ; attLwt (pEZC1313), for which the activity (kanamycin resistant colonies) in series [2] (with Cre/loxP, background 9) was found to be 0.

Take “attRwt (lacking P1 and H1; pEZC1301) ; attL1 (pEZC1317)”: the activity (kanamycin resistant colonies) in series [2] (with Cre/loxP, background 1) stood at 47.

Turning to “attRwt (lacking P1 and H1; pEZC1301) ; attL2 (pEZC1321)”, in series [2] (with Cre/loxP, background 1), the activity (kanamycin resistant colonies) stood at 0.

Regarding “attRwt (lacking P1 and H1; pEZC1301) ; attLwt (pEZC1313)”, the activity (kanamycin resistant colonies) in series [2] (in vitro recombination with Cre on loxP as second site, background 1) was 147. As to loxP 511, in series [3] (same reaction as loxP, both sites required for product), the activity (kanamycin resistant colonies) was 760.

As for loxP wild type, the activity (kanamycin resistant colonies) in series [3] (pEZC602 x pEZC629 via loxP and loxP 511, 37 C, 33 mM NaCl) is 760.
